Measurements: PMC13462943, “De novo EHMT2 variants cause an autosomal dominant EHMT2-related Kleefstra syndrome via loss of G9a methyltransferase activity” (Nature Communications, 2026)
Substitutions are numbered along the chain they refer to.

B1: G9a methyltransferase domain (aa residues 913-1193), K1162R (domain or fragment, human, UniProt Q96KQ7-1 913-1193, looked up)
chain: NRAIRTEKIICRDVARGYENVPIPCVNGVDGEPCPEDYKYISENCETSTMNIDRNITHLQHCTCVDDCSSSNCLCGQLSIRCWYDKDGRLLQEFNKIEPPLIFECNQACSCWRNCKNRVVQSGIKVRLQLYRTAKMGWGVRALQTIPQGTFICEYVGELISDAEADVREDDSYLFDLDNKDGEVYCIDARYYGNISRFINHLCDPNIIPVRVFMLHQDLRFPRIAFFSSRDIRTGEELGFDYGDRFWDIRSKYFTCQCGSEKCKHSAEAIALEQSRLARLD
notes: G9a (EHMT2), human, methyltransferase (SET) domain, aa residues 913-1193, patient variant; numbered on NP_006700.3; De novo patient variant made by site-directed mutagenesis; also called p.Lys1162Arg; c.3485A>G; source: E. coli BL21-CodonPlus (DE3)-RIPL, pET28a, purified (IMAC, TEV cleavage, SEC, second IMAC); not shown: His6, N-terminal, cleaved
B2: G9a methyltransferase domain (aa residues 913-1193), N1112S (domain or fragment, human, UniProt Q96KQ7-1 913-1193, looked up)
chain: B1 chain with N200S, R250K
notes: G9a (EHMT2), human, methyltransferase (SET) domain, aa residues 913-1193, patient variant; numbered on NP_006700.3; De novo patient variant made by site-directed mutagenesis; also called p.Asn1112Ser; c.3335A>G; source: E. coli BL21-CodonPlus (DE3)-RIPL, pET28a, purified (IMAC, TEV cleavage, SEC, second IMAC); not shown: His6, N-terminal, cleaved
B3: G9a methyltransferase domain (aa residues 913-1193), wild type (domain or fragment, human, UniProt Q96KQ7-1 913-1193, looked up)
chain: B1 chain with R250K
notes: G9a (EHMT2), human, methyltransferase (SET) domain, aa residues 913-1193; variants numbered on NP_006700.3; His tag removed by TEV protease; also called EHMT2; euchromatin histone lysine methyltransferase 2; source: E. coli BL21-CodonPlus (DE3)-RIPL, pET28a, purified (IMAC, TEV cleavage, SEC, second IMAC); not shown: His6, N-terminal, cleaved
B4: G9a methyltransferase domain (aa residues 913-1193), F1158L (domain or fragment, human, UniProt Q96KQ7-1 913-1193, looked up)
chain: B1 chain with F246L, R250K
notes: G9a (EHMT2), human, methyltransferase (SET) domain, aa residues 913-1193, patient variant; numbered on NP_006700.3; De novo patient variant made by site-directed mutagenesis; also called p.Phe1158Leu; c.3472T>C; source: E. coli BL21-CodonPlus (DE3)-RIPL, pET28a, purified (IMAC, TEV cleavage, SEC, second IMAC); not shown: His6, N-terminal, cleaved
B5: G9a methyltransferase domain (aa residues 913-1193), A1077S (domain or fragment, human, UniProt Q96KQ7-1 913-1193, looked up)
chain: B1 chain with A165S, R250K
notes: G9a (EHMT2), human, methyltransferase (SET) domain, aa residues 913-1193, patient variant; numbered on NP_006700.3; De novo patient variant made by site-directed mutagenesis; also called p.Ala1077Ser; c.3229G>T; source: E. coli BL21-CodonPlus (DE3)-RIPL, pET28a, purified (IMAC, TEV cleavage, SEC, second IMAC); not shown: His6, N-terminal, cleaved
B6: G9a methyltransferase domain (aa residues 913-1193), A1077T (domain or fragment, human, UniProt Q96KQ7-1 913-1193, looked up)
chain: B1 chain with A165T, R250K
notes: G9a (EHMT2), human, methyltransferase (SET) domain, aa residues 913-1193, patient variant; numbered on NP_006700.3; De novo patient variant made by site-directed mutagenesis; also called p.Ala1077Thr; c.3229G>A; source: E. coli BL21-CodonPlus (DE3)-RIPL, pET28a, purified (IMAC, TEV cleavage, SEC, second IMAC); not shown: His6, N-terminal, cleaved
B7: GLP methyltransferase domain (aa 1001-1266), wild type (domain or fragment, human, UniProt Q9H9B1-1 1001-1266, looked up)
chain: DRPSPVERIVSRDIARGYERIPIPCVNAVDSEPCPSNYKYVSQNCVTSPMNIDRNITHLQYCVCIDDCSSSNCMCGQLSMRCWYDKDGRLLPEFNMAEPPLIFECNHACSCWRNCRNRVVQNGLRARLQLYRTRDMGWGVRSLQDIPPGTFVCEYVGELISDSEADVREEDSYLFDLDNKDGEVYCIDARFYGNVSRFINHHCEPNLVPVRVFMAHQDLRFPRIAFFSTRLIEAGEQLGFDYGERFWDIKGKLFSCRCGSPKCRHS
notes: GLP (EHMT1), human, methyltransferase (SET) domain, aa 1001-1266; NM_024757.5 is printed for the EHMT1 variant of the Kleefstra syndrome 1 patient, not expressly for this construct; also called EHMT1; euchromatin histone lysine methyltransferase 1; source: E. coli BL21-CodonPlus (DE3)-RIPL, pET28a, purified (IMAC, TEV cleavage, SEC, second IMAC); not shown: His6, N-terminal, cleaved
B8: G9a methyltransferase domain (aa residues 913-1193), Del 1163-4 (domain or fragment, human, UniProt Q96KQ7-1 913-1193, looked up)
chain: NRAIRTEKIICRDVARGYENVPIPCVNGVDGEPCPEDYKYISENCETSTMNIDRNITHLQHCTCVDDCSSSNCLCGQLSIRCWYDKDGRLLQEFNKIEPPLIFECNQACSCWRNCKNRVVQSGIKVRLQLYRTAKMGWGVRALQTIPQGTFICEYVGELISDAEADVREDDSYLFDLDNKDGEVYCIDARYYGNISRFINHLCDPNIIPVRVFMLHQDLRFPRIAFFSSRDIRTGEELGFDYGDRFWDIKYFTCQCGSEKCKHSAEAIALEQSRLARLD
notes: G9a (EHMT2), human, methyltransferase (SET) domain, aa residues 913-1193, patient variant; numbered on NP_006700.3; De novo patient variant made by site-directed mutagenesis; also called p.Ser1163_Lys1164del; c.3487_3492del; source: E. coli BL21-CodonPlus (DE3)-RIPL, pET28a, purified (IMAC, TEV cleavage, SEC, second IMAC); not shown: His6, N-terminal, cleaved
B9: G9a methyltransferase domain (aa residues 913-1193), Del 1076-9 (domain or fragment, human, UniProt Q96KQ7-1 913-1193, looked up)
chain: NRAIRTEKIICRDVARGYENVPIPCVNGVDGEPCPEDYKYISENCETSTMNIDRNITHLQHCTCVDDCSSSNCLCGQLSIRCWYDKDGRLLQEFNKIEPPLIFECNQACSCWRNCKNRVVQSGIKVRLQLYRTAKMGWGVRALQTIPQGTFICEYVGELISDAREDDSYLFDLDNKDGEVYCIDARYYGNISRFINHLCDPNIIPVRVFMLHQDLRFPRIAFFSSRDIRTGEELGFDYGDRFWDIKSKYFTCQCGSEKCKHSAEAIALEQSRLARLD
notes: G9a (EHMT2), human, methyltransferase (SET) domain, aa residues 913-1193, patient variant; numbered on NP_006700.3; also called p.Glu1076_Val1079del; c.3225_3236del; source: E. coli BL21-CodonPlus (DE3)-RIPL, pET28a, purified (IMAC, TEV cleavage, SEC, second IMAC); not shown: His6, N-terminal, cleaved

Molecular target: the molecule itself
Experiment: native MS; dimerization of apo proteins: 5 µM protein in 150 mM ammonium acetate pH 7.5, 0.5 mM DTT; monomer-dimer distribution quantified
With B1 the “stoichiometry N” value was 2. In the case of B2, the “stoichiometry N” value is reported as 2. B3 was tested, and the “stoichiometry N” value was 2. In the case of B4, the “stoichiometry N” value is reported as 2. With B5 the “stoichiometry N” value was 2. For B6, the “stoichiometry N” value was 2. In the case of B7, the “stoichiometry N” value is reported as 2. B8 was tested, and the “stoichiometry N” value was 2. For B9, the “stoichiometry N” value was 2.
